In patent US6441131:

Key:
peptide of Example 2(53) = target: T1, peptide of Example 2(53)
T1 chain: QLSEXX

peptide of Example 2(22) = target: T2, peptide of Example 2(22) (not fully specified)
T2 chain: PQQNXX

peptide of Example 2(34) = target: T3, peptide of Example 2(34)
T3 chain: PQDEXX

peptide of Example 2(3) = target: T4, peptide of Example 2(3)
T4 chain: PQQAXX

peptide of Example 2(56) = target: T5, peptide of Example 2(56)
T5 chain: SLSEXX

peptide of Example 2(11) = target: T6, peptide of Example 2(11)
T6 chain: PQQAXX

peptide of Example 2(51) = target: T7, peptide of Example 2(51)
T7 chain: GLSEXX

peptide of Example 2(61) = target: T8, peptide of Example 2(61)
T8 chain: KNLSEXX

peptide of Example 2(23) = target: T9, peptide of Example 2(23)
T9 chain: PQQQXX

peptide of Example 2(36) = target: T10, peptide of Example 2(36)
T10 chain: PNSEXX

peptide of Example 2(63) = target: T11, peptide of Example 2(63)
T11 chain: PNNLSEXX

peptide of Example 2(54) = target: T12, peptide of Example 2(54)
T12 chain: KLSEXX

peptide of Example 2(45) = target: T13, peptide of Example 2(45)
T13 chain: PTSEXX

peptide of Example 2(7) = target: T14, peptide of Example 2(7)
T14 chain: PQQAXX

peptide of Example 2(18) = target: T15, peptide of Example 2(18)
T15 chain: APQQAXX

peptide of Example 2(80) = target: T16, peptide of Example 2(80)
T16 chain: LSEXAX

[1] = target: T17, Nα-Me-GlySerGlyAla(2-Naph)AlaAla-DCHA.TFMSA
T17 chain: GSGXAX

peptide of Example 2(33) = target: T18, peptide of Example 2(33)
T18 chain: PQEEXX

peptide of Example 2(83) = target: T19, peptide of Example 2(83)
T19 chain: GLSEXAX

[2] = target: T20, Nα-Me-GlyLeuSerGluAla(2-Naph)Ala-pNA.TFMSA
T20 chain: GLSEXX

peptide of Example 2(16) = target: T21, peptide of Example 2(16)
T21 chain: NPQQAXX

peptide of Example 2(24) = target: T22, peptide of Example 2(24)
T22 chain: PQQGXX

peptide of Example 2(78) = target: T23, peptide of Example 2(78)
T23 chain: LSEXAX

peptide of Example 2(14) = target: T24, peptide of Example 2(14)
T24 chain: KPQQAXX

peptide of Example 2(69) = target: T25, peptide of Example 2(69)
T25 chain: XLSEXX

peptide of Example 2(57) = target: T26, peptide of Example 2(57)
T26 chain: TLSEXX

[3] = target: T27, ProLeuSerGluAla(2-Naph)Ala-pNA
T27 chain: PLSEXX

peptide of Example 2(39) = target: T28, peptide of Example 2(39)
T28 chain: PMSEXX

peptide of Example 2(25) = target: T29, peptide of Example 2(25)
T29 chain: PQQMXX

B1: human pepsin II (protein)
chain: SVTYEPMAYMDAAYFGEISIGTPPQNFLVLFDTGSSNLWVPSVYCQSQACTSHSRFNPSESSTYSTNGQTFSLQYGSGSLTGFFGYDTLTVQSIQVPNQEFGLSENEPGTNFVYAQFDGIMGLAYPALSVDEATTAMQGMVQEGALTSPVFSVYLSNQQGSSGGAVVFGGVDSSLYTGQIYWAPVTQELYWQIGIEEFLIGGQASGWCSEGCQAIVDTGTSLLTVPQQYMSALLQATGAQEDEYGQFLVNCNSIQNLPSLTFIINGVEFPLPPSSYILSNNGYCTVGVEPTYLSSQNGQPLWILGDVFLRSYYSVYDLGNNRVGFATAA
For B1, the pepsin II digesting rate (µM/min · 1 µg Enz) (peptide of Example 2(53)) was 62, the ration of digesting rate (pepsin II/ pepsin I) (peptide of Example 2(53)) was 621 and the pepsin II digesting rate (µM/min · 1 µg Enz) (peptide of Example 2(22)) was 12.9. The ration of digesting rate (pepsin II/ pepsin I) (peptide of Example 2(22)) was 223, the pepsin II digesting rate (µM/min · 1 µg Enz) (peptide of Example 2(34)) was 15.4 and the ration of digesting rate (pepsin II/ pepsin I) (peptide of Example 2(34)) was 712. It also gave a pepsin II digesting rate (µM/min · 1 µg Enz) (peptide of Example 2(3)) of 4.23, a ration of digesting rate (pepsin II/ pepsin I) (peptide of Example 2(3)) of 2070 and a pepsin II digesting rate (µM/min · 1 µg Enz) (peptide of Example 2(56)) of 10.9. The ration of digesting rate (pepsin II/ pepsin I) (peptide of Example 2(56)) was 563, the pepsin II digesting rate (µM/min · 1 µg Enz) (peptide of Example 2(11)) was 4.1 and the ration of digesting rate (pepsin II/ pepsin I) (peptide of Example 2(11)) was 175. For the same protein, the pepsin II digesting rate (µM/min · 1 µg Enz) (peptide of Example 2(51)) was 54.4, the ration of digesting rate (pepsin II/ pepsin I) (peptide of Example 2(51)) was 334 and the pepsin II digesting rate (µM/min · 1 µg Enz) (peptide of Example 2(61)) was 36.8. It also gave a ration of digesting rate (pepsin II/ pepsin I) (peptide of Example 2(61)) of 219, a pepsin II digesting rate (µM/min · 1 µg Enz) (peptide of Example 2(23)) of 5.9 and a ration of digesting rate (pepsin II/ pepsin I) (peptide of Example 2(23)) of 309. The pepsin II digesting rate (µM/min · 1 µg Enz) (peptide of Example 2(36)) was 21.2, the ration of digesting rate (pepsin II/ pepsin I) (peptide of Example 2(36)) was 194 and the pepsin II digesting rate (µM/min · 1 µg Enz) (peptide of Example 2(63)) was 29.8. The ration of digesting rate (pepsin II/ pepsin I) (peptide of Example 2(63)) was 169, the pepsin II digesting rate (µM/min · 1 µg Enz) (peptide of Example 2(54)) was 48.4 and the ration of digesting rate (pepsin II/ pepsin I) (peptide of Example 2(54)) was 177. For the same protein, the pepsin II digesting rate (µM/min · 1 µg Enz) (peptide of Example 2(45)) was 40.5, the ration of digesting rate (pepsin II/ pepsin I) (peptide of Example 2(45)) was 161 and the pepsin II digesting rate (µM/min · 1 µg Enz) (peptide of Example 2(7)) was 3.5. The ration of digesting rate (pepsin II/ pepsin I) (peptide of Example 2(7)) was 104, the pepsin II digesting rate (µM/min · 1 µg Enz) (peptide of Example 2(18)) was 9.2 and the ration of digesting rate (pepsin II/ pepsin I) (peptide of Example 2(18)) was 757. The pepsin II digesting rate (µM/min · 1 µg Enz) (peptide of Example 2(80)) was 15.8, the ration of digesting rate (pepsin II/ pepsin I) (peptide of Example 2(80)) was 105 and the pepsin II digesting rate (µM/min · 1 µg Enz) [1] was 33.1. The ration of digesting rate (pepsin II/ pepsin I) [1] was 120, the pepsin II digesting rate (µM/min · 1 µg Enz) (peptide of Example 2(33)) was 25.4 and the ration of digesting rate (pepsin II/ pepsin I) (peptide of Example 2(33)) was 402. It also gave a pepsin II digesting rate (µM/min · 1 µg Enz) (peptide of Example 2(83)) of 70.7, a ration of digesting rate (pepsin II/ pepsin I) (peptide of Example 2(83)) of 29.9 and a pepsin II digesting rate (µM/min · 1 µg Enz) [2] of 49.6. For the same protein, the ration of digesting rate (pepsin II/ pepsin I) [2] was 158, the pepsin II digesting rate (µM/min · 1 µg Enz) (peptide of Example 2(16)) was 8.95 and the ration of digesting rate (pepsin II/ pepsin I) (peptide of Example 2(16)) was 1090. The pepsin II digesting rate (µM/min · 1 µg Enz) (peptide of Example 2(24)) was 12.1, the ration of digesting rate (pepsin II/ pepsin I) (peptide of Example 2(24)) was 2080 and the pepsin II digesting rate (µM/min · 1 µg Enz) (peptide of Example 2(78)) was 54.4. The ration of digesting rate (pepsin II/ pepsin I) (peptide of Example 2(78)) was 20.7, the pepsin II digesting rate (µM/min · 1 µg Enz) (peptide of Example 2(14)) was 3.85 and the ration of digesting rate (pepsin II/ pepsin I) (peptide of Example 2(14)) was 410. For the same protein, the pepsin II digesting rate (µM/min · 1 µg Enz) (peptide of Example 2(69)) was 73.1, the ration of digesting rate (pepsin II/ pepsin I) (peptide of Example 2(69)) was 74.2 and the pepsin II digesting rate (µM/min · 1 µg Enz) (peptide of Example 2(57)) was 18.8. The ration of digesting rate (pepsin II/ pepsin I) (peptide of Example 2(57)) was 661, the pepsin II digesting rate (µM/min · 1 µg Enz) [3] was 55.4 and the ration of digesting rate (pepsin II/ pepsin I) [3] was 198. For the same protein, the pepsin II digesting rate (µM/min · 1 µg Enz) (peptide of Example 2(39)) was 45.8, the ration of digesting rate (pepsin II/ pepsin I) (peptide of Example 2(39)) was 201 and the pepsin II digesting rate (µM/min · 1 µg Enz) (peptide of Example 2(25)) was 5.56. For the same protein, the ration of digesting rate (pepsin II/ pepsin I) (peptide of Example 2(25)) was 890.

B2: human pepsin I (protein)
chain: VDEQPLENYLDMEYFGTIGIGTPAQDFTVVFDTGSSNLWVPSVYCSSLACTNHNRFNPEDSSTYQSTSETVSITYGTGSMTGILGYDTVQVGGISDTNQIFGLSETEPGSFLYYAPFDGILGLAYPSISSSGATPVFDNIWNQGLVSQDLFSVYLSADDQSGSVVIFGGIDSSYYTGSLNWVPVTVEGYWQITVDSITMNGEAIACAEGCQAIVDTGTSLLTGPTSPIANIQSDIGASENSDGDMVVSCSAISSLPDIVFTINGVQYPVPPSAYILQSEGSCISGFQGMNLPTESGELWILGDVFIRQYFTVFDRANNQVGLAPVA
For B2, the pepsin I digesting rate (µM/min · 1 µg Enz) (peptide of Example 2(53)) was 0.0998, the pepsin I digesting rate (µM/min · 1 µg Enz) (peptide of Example 2(22)) was 0.0578 and the pepsin I digesting rate (µM/min · 1 µg Enz) (peptide of Example 2(34)) was 0.0216. For the same protein, the pepsin I digesting rate (µM/min · 1 µg Enz) (peptide of Example 2(3)) was 0.002, the pepsin I digesting rate (µM/min · 1 µg Enz) (peptide of Example 2(56)) was 0.0194 and the pepsin I digesting rate (µM/min · 1 µg Enz) (peptide of Example 2(11)) was 0.0235. The pepsin I digesting rate (µM/min · 1 µg Enz) (peptide of Example 2(51)) was 0.163, the pepsin I digesting rate (µM/min · 1 µg Enz) (peptide of Example 2(61)) was 0.168 and the pepsin I digesting rate (µM/min · 1 µg Enz) (peptide of Example 2(23)) was 0.0191. The pepsin I digesting rate (µM/min · 1 µg Enz) (peptide of Example 2(36)) was 0.11, the pepsin I digesting rate (µM/min · 1 µg Enz) (peptide of Example 2(63)) was 0.176 and the pepsin I digesting rate (µM/min · 1 µg Enz) (peptide of Example 2(54)) was 0.274. The pepsin I digesting rate (µM/min · 1 µg Enz) (peptide of Example 2(45)) was 0.251, the pepsin I digesting rate (µM/min · 1 µg Enz) (peptide of Example 2(7)) was 0.0335 and the pepsin I digesting rate (µM/min · 1 µg Enz) (peptide of Example 2(18)) was 0.0122. The pepsin I digesting rate (µM/min · 1 µg Enz) (peptide of Example 2(80)) was 0.15, the pepsin I digesting rate (µM/min · 1 µg Enz) [1] was 0.277 and the pepsin I digesting rate (µM/min · 1 µg Enz) (peptide of Example 2(33)) was 0.0632. For the same protein, the pepsin I digesting rate (µM/min · 1 µg Enz) (peptide of Example 2(83)) was 2.37, the pepsin I digesting rate (µM/min · 1 µg Enz) [2] was 0.313 and the pepsin I digesting rate (µM/min · 1 µg Enz) (peptide of Example 2(16)) was 0.0082. The pepsin I digesting rate (µM/min · 1 µg Enz) (peptide of Example 2(24)) was 0.0058, the pepsin I digesting rate (µM/min · 1 µg Enz) (peptide of Example 2(78)) was 2.62 and the pepsin I digesting rate (µM/min · 1 µg Enz) (peptide of Example 2(14)) was 0.0094. For the same protein, the pepsin I digesting rate (µM/min · 1 µg Enz) (peptide of Example 2(69)) was 0.985, the pepsin I digesting rate (µM/min · 1 µg Enz) (peptide of Example 2(57)) was 0.0284 and the pepsin I digesting rate (µM/min · 1 µg Enz) [3] was 0.28. For the same protein, the pepsin I digesting rate (µM/min · 1 µg Enz) (peptide of Example 2(39)) was 0.228 and the pepsin I digesting rate (µM/min · 1 µg Enz) (peptide of Example 2(25)) was 0.0063.
